Experimental findings from article PMC9761383 (2022) are described below.

The target of test [1] is collagen α1α1α2(IV) purified from conditioned culture medium of LH3 KO PFHR9 cells (mouse (endogenous in PFHR9)). As to the kind of experiment: rotary shadow electron microscopy; purified collagen α1α1α2(IV) (about 100 μg/ml) in 0.2 M acetic acid, 70% glycerol, sprayed on mica, carbon/platinum shadowed; molecules counted (WT n = 690, LH3 KO n = 295); hexamers = two heterotrimers, dodecamers = four heterotrimers.

In test [2] the target is collagen α1α1α2(IV) purified from conditioned culture medium of WT PFHR9 cells (mouse (endogenous in PFHR9)). The description is as above.
In test [3] the target is T1, collagen α1α1α2(IV) purified from conditioned culture medium of LH3 KO PFHR9 cells (mouse (endogenous in PFHR9), more unmodified lysines (significantly fewer hydroxylysines)); high occupancy of galactosyl Hyl but not glucosyl galactosyl Hyl; prolyl 4 hydroxylation reduced | more unmodified lysines (significantly …). As to the kind of experiment: SPR. For orientation: Surface plasmon resonance follows binding to a sensor surface in real time, without labels.

Test [4] concerns the target T2, collagen α1α1α2(IV) purified from conditioned culture medium of WT PFHR9 cells (mouse (endogenous in PFHR9), hydroxylysines, almost fully modified to glucosyl galactosyl Hyl; 4-hydroxyproline; 3-hydroxyproline | hydroxylysines, almost fully modified to glucosyl galactosyl Hyl; 4-hydroxyproline; …). Description: SPR.
Test [5] deals with T1, collagen α1α1α2(IV) purified from …. Description: SPR. This is another data set of the same source.
In test [6] the target is T2, collagen α1α1α2(IV) purified from …. As to the kind of experiment: SPR. The source holds these as a separate data set.

In general, koff refers to a measure of how fast the partners let go of each other. Read a low koff as slow dissociation. In general, Kd refers to the equilibrium constant for the complex coming apart. The low end stands for tighter binding, the high end for weaker binding.

T1 sequence (P02463 28-1669, chain 1 of 2): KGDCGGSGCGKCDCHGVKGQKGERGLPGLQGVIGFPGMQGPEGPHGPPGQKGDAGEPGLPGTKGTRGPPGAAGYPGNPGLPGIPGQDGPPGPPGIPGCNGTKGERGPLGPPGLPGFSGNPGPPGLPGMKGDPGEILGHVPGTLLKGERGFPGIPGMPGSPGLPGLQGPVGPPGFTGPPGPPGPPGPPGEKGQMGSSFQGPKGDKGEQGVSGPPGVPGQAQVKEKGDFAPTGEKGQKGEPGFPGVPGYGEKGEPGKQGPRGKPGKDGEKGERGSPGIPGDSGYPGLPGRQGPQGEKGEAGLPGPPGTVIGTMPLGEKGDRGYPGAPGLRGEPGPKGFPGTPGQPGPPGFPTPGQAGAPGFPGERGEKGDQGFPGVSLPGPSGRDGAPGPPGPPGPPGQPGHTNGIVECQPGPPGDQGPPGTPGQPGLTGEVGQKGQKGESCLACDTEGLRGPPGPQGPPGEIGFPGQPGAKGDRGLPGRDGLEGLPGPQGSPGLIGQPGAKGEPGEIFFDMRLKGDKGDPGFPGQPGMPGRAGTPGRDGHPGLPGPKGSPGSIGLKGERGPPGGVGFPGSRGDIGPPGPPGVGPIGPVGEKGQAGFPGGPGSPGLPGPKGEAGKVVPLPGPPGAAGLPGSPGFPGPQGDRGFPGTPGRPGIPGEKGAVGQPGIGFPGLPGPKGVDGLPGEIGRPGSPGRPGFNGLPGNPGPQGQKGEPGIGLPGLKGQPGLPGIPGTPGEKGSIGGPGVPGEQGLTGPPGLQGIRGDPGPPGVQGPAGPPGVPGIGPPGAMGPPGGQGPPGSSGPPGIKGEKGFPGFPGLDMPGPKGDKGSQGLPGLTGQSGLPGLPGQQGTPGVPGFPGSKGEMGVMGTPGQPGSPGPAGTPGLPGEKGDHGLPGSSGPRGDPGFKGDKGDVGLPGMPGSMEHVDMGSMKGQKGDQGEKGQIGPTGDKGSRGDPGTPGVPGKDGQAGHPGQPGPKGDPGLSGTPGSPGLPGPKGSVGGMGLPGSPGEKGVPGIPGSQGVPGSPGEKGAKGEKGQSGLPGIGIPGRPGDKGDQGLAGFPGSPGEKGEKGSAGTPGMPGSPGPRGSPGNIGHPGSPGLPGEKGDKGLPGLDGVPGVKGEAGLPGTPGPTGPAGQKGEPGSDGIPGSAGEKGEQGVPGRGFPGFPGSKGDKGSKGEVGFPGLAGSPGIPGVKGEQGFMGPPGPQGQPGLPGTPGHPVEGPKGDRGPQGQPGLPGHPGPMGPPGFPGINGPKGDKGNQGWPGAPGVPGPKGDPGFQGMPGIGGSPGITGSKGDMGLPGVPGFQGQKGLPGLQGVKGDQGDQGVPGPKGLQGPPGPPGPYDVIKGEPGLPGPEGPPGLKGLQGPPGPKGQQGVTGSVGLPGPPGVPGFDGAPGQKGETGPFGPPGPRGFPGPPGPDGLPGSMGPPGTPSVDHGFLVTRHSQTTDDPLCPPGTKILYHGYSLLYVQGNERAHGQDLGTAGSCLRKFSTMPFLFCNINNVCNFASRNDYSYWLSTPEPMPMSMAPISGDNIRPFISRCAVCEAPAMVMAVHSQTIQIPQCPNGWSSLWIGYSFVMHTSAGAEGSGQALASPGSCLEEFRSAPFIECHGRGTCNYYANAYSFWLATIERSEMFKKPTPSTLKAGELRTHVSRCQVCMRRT
T1 sequence (P08122 26-1707, chain 2 of 2, further chain): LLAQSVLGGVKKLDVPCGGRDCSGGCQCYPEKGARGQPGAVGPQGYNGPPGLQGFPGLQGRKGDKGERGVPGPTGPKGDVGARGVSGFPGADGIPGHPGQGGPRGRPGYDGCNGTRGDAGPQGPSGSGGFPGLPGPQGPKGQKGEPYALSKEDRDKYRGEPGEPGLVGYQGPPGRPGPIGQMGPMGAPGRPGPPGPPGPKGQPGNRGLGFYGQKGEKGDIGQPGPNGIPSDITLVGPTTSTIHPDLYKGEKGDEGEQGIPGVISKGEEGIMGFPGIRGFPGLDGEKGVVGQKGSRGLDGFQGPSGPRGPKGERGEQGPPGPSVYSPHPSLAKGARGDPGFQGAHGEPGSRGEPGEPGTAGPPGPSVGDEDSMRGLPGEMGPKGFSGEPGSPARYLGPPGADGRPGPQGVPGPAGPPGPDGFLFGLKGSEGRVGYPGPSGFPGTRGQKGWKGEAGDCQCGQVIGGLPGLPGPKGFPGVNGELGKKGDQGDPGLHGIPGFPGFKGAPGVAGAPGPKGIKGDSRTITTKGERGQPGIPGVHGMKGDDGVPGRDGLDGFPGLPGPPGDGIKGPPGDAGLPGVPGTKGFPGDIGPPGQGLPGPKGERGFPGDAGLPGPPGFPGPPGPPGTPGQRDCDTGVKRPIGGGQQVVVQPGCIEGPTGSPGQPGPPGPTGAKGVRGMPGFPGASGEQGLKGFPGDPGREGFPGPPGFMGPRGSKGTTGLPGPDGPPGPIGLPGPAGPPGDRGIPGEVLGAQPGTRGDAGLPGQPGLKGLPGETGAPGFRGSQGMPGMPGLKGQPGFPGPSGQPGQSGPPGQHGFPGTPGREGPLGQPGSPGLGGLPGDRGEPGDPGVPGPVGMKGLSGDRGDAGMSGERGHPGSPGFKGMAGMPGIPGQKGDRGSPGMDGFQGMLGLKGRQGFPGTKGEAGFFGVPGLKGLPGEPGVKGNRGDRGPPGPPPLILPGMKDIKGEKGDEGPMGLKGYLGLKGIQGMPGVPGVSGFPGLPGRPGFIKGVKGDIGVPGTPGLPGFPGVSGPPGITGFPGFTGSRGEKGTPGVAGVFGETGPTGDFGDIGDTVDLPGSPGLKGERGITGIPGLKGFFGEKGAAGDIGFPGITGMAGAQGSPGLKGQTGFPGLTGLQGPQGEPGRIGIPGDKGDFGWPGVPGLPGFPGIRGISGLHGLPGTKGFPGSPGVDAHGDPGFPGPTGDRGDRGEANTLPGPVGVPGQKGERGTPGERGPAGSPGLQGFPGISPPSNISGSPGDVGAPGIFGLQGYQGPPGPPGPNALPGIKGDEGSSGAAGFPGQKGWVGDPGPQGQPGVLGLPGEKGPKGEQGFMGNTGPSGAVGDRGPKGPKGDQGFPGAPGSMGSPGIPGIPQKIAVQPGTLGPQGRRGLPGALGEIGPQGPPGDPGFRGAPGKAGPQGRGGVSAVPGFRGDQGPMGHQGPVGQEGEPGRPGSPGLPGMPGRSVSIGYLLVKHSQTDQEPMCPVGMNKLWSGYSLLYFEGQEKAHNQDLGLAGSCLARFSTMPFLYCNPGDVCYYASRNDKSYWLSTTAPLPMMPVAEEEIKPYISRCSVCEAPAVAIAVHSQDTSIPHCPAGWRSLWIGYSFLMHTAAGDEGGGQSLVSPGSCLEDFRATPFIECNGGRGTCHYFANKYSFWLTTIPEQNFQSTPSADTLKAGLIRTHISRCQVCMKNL
T2 sequence (P02463 28-1669, chain 1 of 2): as the sequence (P02463 28-1669, chain 1 of 2) above
T2 sequence (P08122 26-1707, chain 2 of 2, further chain): as the sequence (P08122 26-1707, chain 2 of 2, further chain) above

With “collagen α1α1α2(IV) purified from conditioned culture medium of LH3 KO PFHR9 cells (complex)”, the percent of molecules seen as shortened hexamers (two heterotrimers) in test [1] was determined as 7.8%.
In test [2], “collagen α1α1α2(IV) purified from conditioned culture medium of WT PFHR9 cells (complex)” yielded a percent of molecules seen as dodecamers (four heterotrimers) of 9% and a percent of molecules seen as hexamers (two heterotrimers) of 8.5%.

B1: heat shock protein 47 (natural protein)
chain: VPSEDRKLSDKATTLADRSTTLAFNLYHAMAKDKNMENILLSPVVVASSLGLVSLGGKATTASQAKAVLSADKLNDDYVHSGLSELLNEVSNSTARNVTWKIGNRLYGPASINFADDFVKNSKKHYNYEHSKINFRDKRSALKSINEWAAQTTDGKLPEVTKDVEKTDGALIVNAMFFKPHWDEKFHHKMVDNRGFMVTRSYTVGVPMMHRTGLYNYYDDEAEKLQVVEMPLAHKLSSMIFIMPNHVEPLERVEKLLNREQLKTWASKMKKRSVAISLPKVVLEVSHDLQKHLADLGLTEAIDKTKADLSKISGKKDLYLSNVFHAAALEWDTDGNPYDADIYGREEMRNPKLFYADHPFIFMIKDSKTNSILFIGRLVRPKGDKMRDEL
B1: the figures for the koff in test [3] and in test [4] were 0.107 s⁻¹ and 0.0226 s⁻¹, respectively. Further, the values for the Kd in test [5] and in test [6] were 116 nM and 17.9 nM, respectively.
